The results in this text go back to article PMC7615710 (2023).

The term Kd denotes the equilibrium constant for the complex coming apart. A high value points to weaker binding.

The target of experiment [1] is T1, ASPP2 C-terminal domain (CTD), tag cleaved (UniProt Q13625 925-1128).
T1 chain: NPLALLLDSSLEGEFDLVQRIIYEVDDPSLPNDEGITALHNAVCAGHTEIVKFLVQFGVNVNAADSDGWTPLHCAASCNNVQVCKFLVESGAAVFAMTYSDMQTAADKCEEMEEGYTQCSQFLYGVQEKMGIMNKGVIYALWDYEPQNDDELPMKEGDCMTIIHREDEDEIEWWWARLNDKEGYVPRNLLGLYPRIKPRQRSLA
The experiment in a line: ITC. (In general: Isothermal titration calorimetry measures the heat released or taken up as one component is titrated into another.)

The target of experiment [2] is T2, ASPP1 C-terminal domain (CTD), tag cleaved (UniProt Q96KQ4 887-1090).
T2 chain: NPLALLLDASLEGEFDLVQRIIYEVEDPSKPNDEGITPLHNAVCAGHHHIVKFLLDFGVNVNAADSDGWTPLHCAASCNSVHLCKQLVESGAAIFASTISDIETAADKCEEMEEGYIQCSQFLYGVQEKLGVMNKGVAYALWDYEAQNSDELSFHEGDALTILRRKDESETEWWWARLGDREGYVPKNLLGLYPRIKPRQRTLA
The experiment in a line: ITC.

With LPPPKKAPTPPPRRRRTVGL [NS5A PRR peptide of HCV strain JFH-1 (20 aa)], the values for the Kd in experiment [1] and in experiment [2] were 42.4 nM and 3780 nM, respectively.
